Measured values taken from paper PMC7801515.

Target: P2C-1F11 monoclonal antibody (human)
Test: SPR

Substance: SARS-CoV-2 receptor-binding domain (RBD), residues Arg319 to Lys529 (from UniProt P0DTC2 319-529) (domain or fragment)
- Kd: 1.72 nM
